The source of these data is publication PMC7795613.

For the data set, the target named is DDX3X 132-607 (human) (UniProt O00571). As to the kind of experiment: MST. The note with it: 20 nM labelled RNA, DDX3X 2-fold dilutions from 19 uM, 10 min at room temperature, measured at 25 C, assay buffer not stated (protein SEC buffer 50 mM …).

Usually Kd stands for the constant that tells how readily two partners part at equilibrium. Read a high Kd as a looser complex.

DDX3X 132-607 (human), sequence (O00571 132-607): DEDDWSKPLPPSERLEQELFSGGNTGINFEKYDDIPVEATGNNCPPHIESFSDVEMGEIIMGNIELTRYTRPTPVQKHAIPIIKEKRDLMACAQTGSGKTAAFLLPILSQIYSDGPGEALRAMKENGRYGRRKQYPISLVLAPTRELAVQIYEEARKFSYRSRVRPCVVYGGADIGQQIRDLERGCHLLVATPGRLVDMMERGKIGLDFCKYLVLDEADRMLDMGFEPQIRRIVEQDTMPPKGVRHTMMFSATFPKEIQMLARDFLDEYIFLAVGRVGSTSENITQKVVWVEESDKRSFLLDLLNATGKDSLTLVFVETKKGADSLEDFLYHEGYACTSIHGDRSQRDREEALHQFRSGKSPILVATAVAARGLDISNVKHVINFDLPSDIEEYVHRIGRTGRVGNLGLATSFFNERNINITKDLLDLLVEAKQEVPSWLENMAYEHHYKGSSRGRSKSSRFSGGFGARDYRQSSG

“GGAGAAGUUUUAUCGUGUGAACUUCUUGGCUUAGUAUCGUUGAGAAGAAUCGAGAGAUUAGUGCAGUUUAAACAGUUUUUUAGAACGGAAGAACAACCAUGACUAAAAAACCAGGAGGGCCCGGAAAAAACCGGGCCAUCAAUAUGCUGAAACGCGGAU [JEV 5' TR]” registered a Kd of 1.66 µM.

In turn, “AGUUGUUACUGUUGCUGACUCAGACUGCGACAGUUCGAGUUUGAAGCGAAAGCUAGCAACAGUAUCAACAGGUUUUAUUUGGAUUUGGAAACGAGAGUUUCUGGUCAUGAAAAACCCAAAAAAGAAAUCCGGAGGAUUCCGGAUUGUCAAUAUGCUAAAACG [ZIKV 5' TR 1-163]” gave a dissociation constant (Kd) of 7.05 µM. This Kd lies about 4.2-fold higher than the previous one.
